From the nanobody polyreactivity screen of Harvey et al. (2022)

assay: yeast display, Sf9 membrane polyspecificity reagent, FACS + sequencing; frameworks hold sequencing errors
Summary of the method: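 Using colony PCR, genes from sorted yeast display clones were amplified, then sequenced on MiSeq at 2 × 250 and filtered by CDR length. The clones had been stained with 10% biotinylated, detergent-solubilized Sf9 membrane reagent for 1 hour at 4 °C and sorted by FACS into low and high (top ~1%) gates on anti-HA and streptavidin fluorescence. Polyreactivity labels come from the gate of origin.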

Sequence	polyreactivity (PSR sort gate)
QVQLVESGGGIVQAGGSLRLSCAASGYIFKRYAMGWYRQAPWKERELVAAITGRGGSTYFADSVKGRFKISRDNAKNTVYLQMNSLKPEDTAVYYCAADGYVKGDYWGQGTQVTVSS	high polyreactivity
QVQLVESGGGIVQAGGSLRLSCAASGYSFFINAMGWSRQAPGKERELVAAIDLRGGSTYYADSVKGRFTISRDNAKNTVYLQMNSLKPEDTAVYYCNARARRYGGRYYYWGQGTQVTVSS	high polyreactivity
QVQLVESGGGIVQAGGSLRLSCAASGYTIDSYGMGWYRQAPGKERELVAAIDWSGGSTYYADSVKGRFTISRDNAKNTVYLQMNSLKPEDTAVYYCAARRGLRLFAYRHGYWGQGTQVTVSS	low polyreactivity
QVQLVESGGGIVQAGGSLRLSCAASYYDMGWYRQAHGKERELVASISSGGSTNYADSVKGRFTISRDNAKNTVYLQMNSLKPEVTAVYYCAAVVADGVWVKIADEYWGQGTQVTVSS	low polyreactivity
QVQLVESGGGIVQAGGSLRLSCASSGLIFKFYAMGWYRQAPGKERELVASIRRSGDNTYYADSVKRRFTISRDNAKNTVYLQMKSLKPEDTAVYYCAAELLYDYVEYYYWGQGTQVTVAS	high polyreactivity
QVQLVESGGGIVQAGGSLRLSCDGSGSTFTYYAMGWYRQEPGKEWEFVAAISRRGGSTYYADSVKGRFTISRDNAKNTVYFQLNSLKPEDTAVSDCNVVIYSYGINGRYDYWGQGTQVTVSS	high polyreactivity
QVQLVESGGGIVQAGGSLRLSCTASGFTFTYYAMGSYRQAPGKERELVAAISWSGGSTYYADSVKGRFTISRDNAKNTVYLQMNSLKPEDTAVYYCNKVGRAIGPYDYWGQGTQVTVSS	high polyreactivity
QVQLVESGGGIVQAGGSLRLSSAASGFTFYYYAIGWYRQAPGKERELVAAISSGGSTYYADSVKGRFTISRDNAKNTVYLQMNSLKPEDTAVYYCAADSLYYRYDYWGQGTQVTVSS	low polyreactivity
QVQLVESGGGIVQAGGSLRLSSAASGGIFPYYVMGRYRQAPGKERELVAAINSGGTTYYADSVKGRFTISRDNAKNTVYLQMNSLKPEDTAVYYCAAEAYKHGVWDYDYWGQGTQVTVSS	low polyreactivity
QVQLVESGGGIVQAGGSLRLSSAASGRIFDGYTKGWYRHEPGKERQLVAAITYRSGRTYYADSVKGRFTISRDNAKNTVYLQMHSLKPDDTAVYYCAAPWYRGGNTESYYWGQGTQVTVSS	high polyreactivity
QVQLVESGGGIVQAGGSLRLSSAASGSTFVYNAMGSYRQAPGKERELVASITRSGSSTYYADSVKGRFTISRDNAKNTVYLQMNSLKPEDSAVYYCAVRYYVLSYYRYYYWGQGTQVTVSS	low polyreactivity
QVQLVESGGGIVQAGGSLRLTCAASGRIFPTYAMGWYRQAPGKEREMVATINGDGGSTYYAYSVKGRFTISRDNPKNTVYLHMNSLKPEDTSVDYCAKSYPFAAEYDYWGQGSQVTVSS	low polyreactivity
QVQLVESGGGIVQAGGSLRVSCAASGFTFHKYAMGWYRQAPGTERELVAVISQSASSTYYADSVKGRFTISRDNAKNTVYFQMNGLKPEDTAVYYCNAKYYRYNRRNYWGQVTQVTVSS	high polyreactivity
QVQLVESGGGIVQAGRSLRLSCAASGRIFYTNVMGWYRQAPGKERELDAAISSAGTTYYADSVKGRFTISRDNAKNTVYLQMNSLKPEDTAVYYCAADQVAYYGFDYWGQVTQVTVSS	low polyreactivity
QVQLVESGGGIVQAGVILRLSCAATGITFWNNAMRWYRQARGKERELVATISSNGGRTYYADSVKGRFTISRDNAKNTVYLQMNSLKPEDTAVYYCKARQVLYGLYLRAYPYEYWGQGTQVTVSS	low polyreactivity
QVQLVESGGGIVQARGSLRLSCAASGSILSSYAMGWYTQAPGKERELVAAISKSGTRTYYADSVKGRFTISRDNAKNTVYLQMNSLKPEDTAVYYCAARYYSRTTAMDYWGQGTQVTVSS	high polyreactivity
QVQLVESGGGIVQEGGSLSLSCAASGRIFFDYAMGWYRQAPGKERELVADIDWSGGITYYADSVKGRYTISRDNAKNTVYLQMNSLNPEDTAVYYCAVEFDELYPTTAYGEFEYWGQVTQVTVSS	high polyreactivity
QVQLVESGGGKVQAGGSLRLSCAASGFTFSNAMGWYRQAPGKERELVAAITRIGGSTFYADSVKGRFTISRDNAKNTVYLQLNSLKPEDTAVYSCAADYGLPLYEGYYWGQGTQVTVSS	low polyreactivity
QVQLVESGGGKVQAGGSLRLSCAASGRTFRWYAMGWYRQAPGKERELVAAITSSSSTNYADSVKGRFTISRDNAKNTVYLQMNSLKPEDTAVYYCAKGWNWYDLGESGYWGQGTQVTVSS	low polyreactivity
QVQLVESGGGKVQAGGSLRLSCAASGRTFWVYAMGWYRPAPGKERELVASISWSVGSTYYADSVKGRFTISRDNAKNTVYLQMNSLKPEDTAVYYCAADPSPYGDEYDYWGQGTQVTVSS	low polyreactivity
QVQLVESGGGKVQAGRSHRLTCAASGSIFYTYPMGWYRQAPGKERELVAAIRSSDGSTYYADSVKGRFTISRDYAKNTVYIQMNSLKSEYTGVYYCAAENIPGEGYYHFEYDYWGQGTQVTVSS	low polyreactivity

Sequence	polyreactivity (PSR sort gate)
QVQLVESGGGLAQAGGSLRLRCAASGRTFPSYAMGWYSQAPGKERELVAAISRSGARTYYADSVKGRFTISRDNAKTTVYLQMNSLKPDDTAVYYCAAVGSTRYEYWGQGSQVTVSS	high polyreactivity
QVQLVESGGGLAQAGGSLRLSCAASGRIIYFNAMGWYRQAPGKEREFVAAISSSGNTYYADSVKGRFTISLDNAKNTVYLQMNSLKPEDTEVYYCDAAIYSYYPASGYKRYDYWGQGTQVTVSS	high polyreactivity
QVQLVESGGGLCQAGGSLRLSCAASGRTFYKNTMGWYRQAPGKERELVAAISIRGGSTYFADTVKGRFTISRDNAKNTFYLQMNSLKPEDTAVYYCNVVYQKAARIVDFDYWGQGTQVTLSS	high polyreactivity
QVQLVESGGGLDHAGGRLRLSCAASGSIFIYYAMGWYRQAPGKERELVAAISNGGSTNYADSVKGRFTFSRDNAKNTVYLQMNSLKPEDTAVYYCNTDWGYFHGVRAYLGYGYWGQGTQVTVSS	low polyreactivity
QVQLVESGGGLDHAGGSLRLSCAASGYTLTDYVMGWYRQAPGKQRELVAAIDWRDGTTYADSVKGRFTISRDNAKNTVYLQFNILKPEDTAVYFCGTDELLTSPRYPEYDYWGQGTQVTVSS	low polyreactivity
QVQLVESGGGLDLAGGSLRLTCAASGSTFTYYAMGWYRQAPGKERELVAAISWRGASTYYADSVKGRFTISRDNAKNTVYLQMNSLNPEDTAVNYCNAVKQRSSIFDYWGQGTQVTVSS	low polyreactivity
QVQLVESGGGLDPAGGSLRLSCAASGFTFYRNAMGWYRQAPGKERELVAGITRSGGSTYYADSVKGRFTISRDNAKNTVYLQMNSLKPEDTAVYYCNKAYGGVKYSGTYDYWGQGTQVTVSS	high polyreactivity
QVQLVESGGGLDQAAGSLPLSCAASGLIFPVYAMGWYRQAPGKAREFVASIWRGGTTYYADSVKGRFTISRDNAKNTVYLQMNSLNPEDTAVYYCAARYYPSGLVFPFTKYDYWGQGTQVTVSS	high polyreactivity
QVQLVESGGGLDQAGGSHRLSCAASGSTFPYPNTMGWYRQAPGKERELVAVISRTGGSTFYADSVKWRFTISRDNAKNTVYFQMNSLKPEDTAVYYCAARRDGWTFWKYDYWGHGTQVTVSS	high polyreactivity
QVQLVESGGGLDQAGGSHRLSCAASGSTFYPYAMRWYRQAPGKERELVAGITVIDGSTYYADSVKGRFTMSRDNAKNPVYFQMNSLKPEDTAVYYCAVDGPNQVQEYGYWGQGTQVTVSS	low polyreactivity
QVQLVESGGGLDQAGGSLLLSCAASGFTFGPYAMGWYRQAPGKERELVATIRSGYSTNYADSVKGRFTISRDNAKNTVYLQMNSLKPEDTAVYYFNREGWHYGPYGYWGQGTQVNVSS	low polyreactivity
QVQLVESGGGLDQAGGSLPLSCAASGRILQGYAMGWYRQAPGKEREMVASIRTGGTTNYADSVKGRFTISRDNAKNTVYLQMNSLKPEDTAVYYCNRGYDSYYGRYYYWGQGTQVTVSS	high polyreactivity
QVQLVESGGGLDQAGGSLRLICAASGRTFATNTMVWYRQAPGKERELVAAITFSGGSTYYADSVKGRFTISRDNEKNSVYLQMNSLKPEETAVYYCNVRSPYYSYRYRYGYWGQGTQVTVSS	high polyreactivity
QVQLVESGGGLDQAGGSLRLICAASGRTFYYAMGWYRQAPGKERYADSVKGRFTISRDNAKNTVYLQMNSLKPEDTAVYYCAAKVPEPPSLDESDYWGQGTQVTVSS	low polyreactivity
QVQLVESGGGLDQAGGSLRLICAASGRTFYYNVMGWYRQAPGKERELVAAISTGVSTNYADSVKGRFTISRDNAKNTVYLQMNSQKPEDTAVYYCNSRSYRWYRPVYRYDYWGQGTQVTVSS	high polyreactivity
QVQLVESGGGLDQAGGSLRLRCAASGSTFLINAMGWYRQAPGKESELVAAISSSSGNTYYADSVKWRFTISRDNAKNTVYLQMNSLKPEDTAVYYCKAVFTRGVTQYDHYYWGQGTQVTVSS	high polyreactivity
QVQLVESGGGLDQAGGSLRLSCAASGFIFAYYAMGWYRQAPGKERELVAAISSGGRTYYADSVKGRFTISRDNAKNTVYLQLNSLKPEDTAVYYCNKRFYPEHYYWGQGTQVTVSS	high polyreactivity
QVQLVESGGGLDQAGGSLRLSCAASGFIFGPNAMGWYRQAPGKERELVAAISWIGSSTYYADSVKGRFTISRDNAKNTVYIKMNSLTPEDTPVYYCAADSSERRLLDFDYWGQGTQVTVSS	low polyreactivity
QVQLVESGGGLDQAGGSLRLSCAASGFIFYRYVMGWYRQAPGKERELVATISSGGSTNYADSVKGRFTISRDNAKNTVYLQMNSLKPEDTAVYYCAKRRYFYNYYEYDYWGQGTQVTVSS	high polyreactivity
QVQLVESGGGLDQAGGSLRLSCAASGFIFYYYAMGWYRQAPGKEREFVAGISRRGGSSYYADSVKGRFTISRDNAKNTVYLQMNSLKPEDTAVYYCIVDFHWQRFHHKSAAYDYWGQGTQVTVSS	high polyreactivity
